Measurements taken from the supplement of paper PMC7877785.
± gives the uncertainty stated by the source.

Experiment: self-splicing fitness, log relative to wild type (ln ratio); higher = more splicing; Tetrahymena group I intron in knt gene, E. coli kanamycin selection, DiMSum; sequences stand for … in CUCUCU…GGAGGGAAAAGUUAUCAGGCAUGCACCUGGUAGCUAGUCUUUAAACCAAUAGAUUGCAUCGGUUUAAAAGGCAAGACCGUCAAAUUGCGGGAAAGGGGUCAACAGCCGUUCAGUACCAAGUCUCAGGGGAAACUUUGAGAUGGCCUUGCAAAGGGUAUGGUAAUAAGCUGACGGACAUGGUCCUAACCACGCAGCCAAGUCCUAAGUCAACAGAUCUUCUGUUGAUAUGGAUGCAGUUCACAGACUAAAUGUCGGUCGGGGAAGAUGUAUUCUUCUCAUAAGAUAUAGUCGGACCUCUCCUUAAUGGGAGCUAGCGGAUGAAGUGAUGCAACACUGGAGCCGCUGGGAACUAAUUUGUAUGCGAAAGUAUAUUGAUUAGUUUUGGAGUACUCGUGGUCG
How it was run: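 Library with all eight P1ex-region intron nucleotides randomised, intron inside the knt kanamycin-resistance gene on pET-22b(+), in E. coli BL21(DE3). Cells grew overnight at 37°C or 30°C on LB agar with or without 25 μg/mL kanamycin (plus 100 μg/mL carbenicillin, 50 μM IPTG, 0.2% rhamnose), in six replicate transformations. Pooled colonies were amplicon-sequenced on Illumina HiSeq 2500. DiMSum fitness is the error-weighted combination of wild-type-normalised replicate fold changes, kanamycin versus none.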

| Sequence | self-splicing fitness (ln) (30 °C) | self-splicing fitness (ln) (37 °C) |
| --- | --- | --- |
| GCUGAGCAAUAUUACGACAU | -2.265 ± 0.018 | -1.08 ± 0.035 |
| GCUGAGCAAUAUUACGACCU | -2.35 ± 0.26 | -1.15 ± 0.33 |
| GCUGAGCAAUAUUACGAUCG |  | -0.335 ± 0.25 |
| GCUGAGCAAUAUUACGCAAA | -4.1 ± 0.39 | -1.55 ± 0.29 |
| GCUGAGCAAUAUUACGCAAU | -2.2 ± 0.26 | -1.9 ± 0.23 |
| GCUGAGCAAUAUUACGCACA | -3.2 ± 0.39 | -3.05 ± 0.4 |
| GCUGAGCAAUAUUACGCACU | -1.78 ± 0.17 | -0.125 ± 0.2 |
| GCUGAGCAAUAUUACGCCGU |  | -0.103 ± 0.24 |
| GCUGAGCAAUAUUACGCUUU | -2.42 ± 0.12 | -2.33 ± 0.18 |
| GCUGAGCAAUAUUACGGAUA | -2.7 ± 0.16 | -1.8 ± 0.14 |
| GCUGAGCAAUAUUACGGGCA | -1.76 ± 0.39 | -2.69 ± 0.36 |
| GCUGAGCAAUAUUACGGGUG | -1.72 ± 0.087 | -1.29 ± 0.11 |
| GCUGAGCAAUAUUACGGUCA | -2.69 ± 0.15 | -2.2 ± 0.14 |
| GCUGAGCAAUAUUACGGUCU | -2.03 ± 0.2 | -1.65 ± 0.21 |
| GCUGAGCAAUAUUACGUCAU | -3.26 ± 0.43 | -0.856 ± 0.3 |
| GCUGAGCAAUAUUACGUGCA | -1.81 ± 0.19 | -0.958 ± 0.19 |
| GCUGAGCAAUAUUACGUUAG | -2.86 ± 0.12 | -1.74 ± 0.17 |
| GCUUAGCAAUAUUACGAAAG | -1.52 ± 0.13 | -0.485 ± 0.19 |
| GCUUAGCAAUAUUACGAACC | -0.273 ± 0.23 | -0.336 ± 0.27 |
| GCUUAGCAAUAUUACGAACG | -0.817 ± 0.099 | 0.062 ± 0.14 |
| GCUUAGCAAUAUUACGAAGG | -0.605 ± 0.12 | -0.64 ± 0.21 |
| GCUUAGCAAUAUUACGACGG | -1.89 ± 0.17 | -0.935 ± 0.18 |
| GCUUAGCAAUAUUACGAGCU | -2.37 ± 0.19 | -1.89 ± 0.34 |
| GCUUAGCAAUAUUACGAUAA | -2.12 ± 0.13 | -1.69 ± 0.12 |
| GCUUAGCAAUAUUACGAUCU | -1.12 ± 0.12 | 0.155 ± 0.13 |
| GCUUAGCAAUAUUACGCAAA | -2.95 ± 0.27 | -1.51 ± 0.2 |

| Sequence | self-splicing fitness (ln) (30 °C) | self-splicing fitness (ln) (37 °C) |
| --- | --- | --- |
| GCUUAGCAAUAUUACGCAGG | -1.27 ± 0.19 | -2.97 ± 0.27 |
| GCUUAGCAAUAUUACGCAUG | -2.06 ± 0.27 | -0.0774 ± 0.2 |
| GCUUAGCAAUAUUACGCCUA | -2.32 ± 0.28 | -1.05 ± 0.22 |
| GCUUAGCAAUAUUACGCGCU | -2.33 ± 0.16 | -2.47 ± 0.21 |
| GCUUAGCAAUAUUACGCGGG | -3.43 ± 0.22 | -2.82 ± 0.32 |
| GCUUAGCAAUAUUACGCUUA | -0.849 ± 0.11 | -0.925 ± 0.14 |
| GCUUAGCAAUAUUACGCUUC | -3.27 ± 0.47 | -1.54 ± 0.29 |
| GCUUAGCAAUAUUACGGAAC | -0.644 ± 0.15 | -0.955 ± 0.14 |
| GCUUAGCAAUAUUACGGAGA | -2.02 ± 0.14 | -0.596 ± 0.12 |
| GCUUAGCAAUAUUACGGAGC | -2.97 ± 0.19 | -2.57 ± 0.41 |
| GCUUAGCAAUAUUACGGAGG | -1.54 ± 0.1 | -0.819 ± 0.094 |
| GCUUAGCAAUAUUACGGCAA | -2.6 ± 0.17 | -2.6 ± 0.17 |
| GCUUAGCAAUAUUACGGCCG | -1.9 ± 0.34 | -1.48 ± 0.36 |
| GCUUAGCAAUAUUACGGUAG | -2.53 ± 0.4 |  |
| GCUUAGCAAUAUUACGGUCU | -0.834 ± 0.083 | -0.0218 ± 0.11 |
| GCUUAGCAAUAUUACGUAAU | -0.0411 ± 0.068 | 0.545 ± 0.083 |
| GCUUAGCAAUAUUACGUCUG | -2.33 ± 0.16 | -1 ± 0.15 |
| GCUUAGCAAUAUUACGUCUU | -1.1 ± 0.1 | -0.549 ± 0.12 |
| GCUUAGCAAUAUUACGUUAU | -1.38 ± 0.093 | -0.881 ± 0.12 |
| GCUUAGCAAUAUUACGUUGA | -2.65 ± 0.2 | -1.15 ± 0.16 |
| GCUUAGCAAUAUUACGUUGG | -1.59 ± 0.1 | -0.814 ± 0.14 |
| GGAAAGCAAUAUUACGAAGU | -2.79 ± 0.16 | -1.97 ± 0.18 |
| GGAAAGCAAUAUUACGACAA | -1.71 ± 0.12 | -1 ± 0.14 |
| GGAAAGCAAUAUUACGAGUU | -1.86 ± 0.1 | -1.08 ± 0.12 |
| GGAAAGCAAUAUUACGCCUC | -1.14 ± 0.16 | -1.03 ± 0.19 |
| GGAAAGCAAUAUUACGCCUU | -1.07 ± 0.29 | -1.29 ± 0.38 |

| Sequence | self-splicing fitness (ln) (30 °C) | self-splicing fitness (ln) (37 °C) |
| --- | --- | --- |
| GGAAAGCAAUAUUACGCUAG | -2.03 ± 0.22 | -0.857 ± 0.29 |
| GGAAAGCAAUAUUACGGCUU | -1.08 ± 0.091 | -0.393 ± 0.14 |
| GGAAAGCAAUAUUACGGGAA | -2.5 ± 0.36 | -2.92 ± 0.26 |
| GGAAAGCAAUAUUACGGGGG | -3.94 ± 0.26 | -1.45 ± 0.21 |
| GGAAAGCAAUAUUACGGUCG | 0.127 ± 0.092 | -0.296 ± 0.12 |
| GGAAAGCAAUAUUACGGUGC | -3.36 ± 0.27 | -1.62 ± 0.23 |
| GGAAAGCAAUAUUACGUACG | -0.792 ± 0.097 | -0.786 ± 0.11 |
| GGAAAGCAAUAUUACGUCCC |  | -2.61 ± 0.33 |
| GGAAAGCAAUAUUACGUGAA | -1.96 ± 0.11 | -1.45 ± 0.16 |
| GGAAAGCAAUAUUACGUGAG | -1.22 ± 0.047 | -0.225 ± 0.069 |
| GGAAAGCAAUAUUACGUGGA | -3.49 ± 0.28 | -1.96 ± 0.23 |
| GGACAGCAAUAUUACGAAAC | -0.691 ± 0.12 | -0.624 ± 0.2 |
| GGACAGCAAUAUUACGACCA | -1.46 ± 0.13 | -0.645 ± 0.16 |
| GGACAGCAAUAUUACGACCU | -0.544 ± 0.077 | -0.13 ± 0.087 |
| GGACAGCAAUAUUACGAGGG | -3.16 ± 0.14 | -2.28 ± 0.15 |
| GGACAGCAAUAUUACGCAAC | -1.68 ± 0.15 | -0.445 ± 0.18 |
| GGACAGCAAUAUUACGCAUA | -0.761 ± 0.094 | 0.314 ± 0.12 |
| GGACAGCAAUAUUACGCCAG | -2.17 ± 0.22 | -2.07 ± 0.35 |
| GGACAGCAAUAUUACGCUAU | -1.42 ± 0.098 | -0.49 ± 0.11 |
| GGACAGCAAUAUUACGCUGA | -2.21 ± 0.16 | -1.51 ± 0.15 |
| GGACAGCAAUAUUACGGGAA | -2.7 ± 0.1 | -1.04 ± 0.083 |
| GGACAGCAAUAUUACGGGAG | -2.73 ± 0.13 | -1.28 ± 0.15 |
| GGACAGCAAUAUUACGGGCC |  | -1.52 ± 0.29 |
| GGACAGCAAUAUUACGGUAA | -1.34 ± 0.082 | -0.697 ± 0.075 |
| GGACAGCAAUAUUACGGUCA | -0.242 ± 0.046 | 0.817 ± 0.07 |
